Source: patent US20140004122A1, “METHODS FOR TREATING OR PREVENTING CHOLESTEROL RELATED DISORDERS” (AMGEN INC., priority 2011, published 2014)

Columns and labels:
[1] = test system: hypercholesterolemic subjects unable to tolerate an effective dose of an HMG-CoA reductase inhibitor; assay: 12 week study vs ezetimibe in statin-intolerant patients (Example 23); assay type: in vivo, human; conditions: preliminary
Protocol: It is planned to enroll 150 subjects. […] Randomization will be stratified by screening LDL-C level (<130 mg/dL [3.4 mmol/L] vs≧130 mg/dL) and statin use at baseline (yes vs no). Randomization should occur within 5-10 days of the screening LDL-C evaluation used to determine eligibility. Monoclonal antibody, 21B12, and placebo will be blinded. Ezetimibe is not blinded. Study visits are at weeks 2, 4, 8, and 12. […] The end-of-study visit and the last evaluation of lipids is at week 12.
Males and females, ≧18 to ≦75 years of age, are eligible for this study. Subject must have tried at least 1 statin and have been unable to tolerate any dose or an increase in statin dose above the following total weekly maximum doses due to myalgia or myopathy: atorvastatin ≦70 mg, simvastatin ≦140 mg, pravastatin ≦140 mg, rosuvastatin ≦35 mg, lovastatin ≦140 mg, fluvastatin ≦280 mg. For unlisted statins, the maximal total weekly dose should not exceed 7 times the smallest available tablet size. Symptoms must have resolved when statin was discontinued or the dose reduced. If receiving statin (not exceeding the maximal dose defined above), bile-acid sequestering resin, and/or stanol therapy, the dose(s) must be stable for at least 4 weeks prior to LDL-C screening. If the subject is on ezetimibe at start of screening, ezetimibe must be discontinued for ≧4 weeks before LDL-C screening. Depending on their risk category (based on NCEP ATP III treatment goals) subjects must meet the following fasting LDL-C (by central laboratory) criteria at screening: ≧100 mg/dL (2.6 mmol/L) for subjects with diagnosed coronary heart disease (CHD) or CHD risk equivalent; ≧130 mg/dL (3.4 mmol/L) for subjects without diagnosed CHD or risk equivalent and 2 or more risk factors; ≧160 mg/dL (4.1 mmol/L) for subjects without diagnosed CHD or risk equivalent and with 1 or no risk factors. Fasting triglycerides must be ≦400 mg/dL (4.5 mmol/L) as determined by the central laboratory analysis at screening.

[2] = test system: human patient exhibiting symptoms of hypercholesterolemia; assay: Treatment of hypercholesterolemia (Example 17); assay type: in vivo; conditions: therapeutically effective amount
Description: At periodic times during the treatment, the human patient is monitored to determine whether the serum cholesterol level has declined.

[3] = test system: subjects with hypercholesterolemia on a statin; assay: 12 week dose-ranging study in combination with statin (Example 25); assay type: in vivo, human; conditions: preliminary
Protocol: Randomization will be stratified by screening LDL-C level (<130 mg/dL [3.4 mmol/L] vs≧130 mg/dL) and ezetimibe use at baseline (yes vs no). Randomization should occur within 5-10 days of the screening LDL-C evaluation used to determine eligibility. Study visits are every 2 weeks, irrespective whether the subject receives Q2W SC or Q4W treatment. […] The end-of-study visit and the last estimation of lipids is at week 12 for subjects on Q4W IP schedule and week 14 for subjects on Q2W IP schedule.
Males and females, ≧18 to ≦80 years of age, are eligible for this study. For enrollment, subjects must be on a statin, with or without ezetimibe, with stable dose(s) for at least 4 weeks before LDL-C screening and not requiring uptitration. Fasting LDL-C at screening must be ≧85 mg/dL (2.2 mmol/L). Enrollment of subjects with screening fasting LDL-C between ≧85 mg/dL (2.2 mmol/L) and <100 mg/dL (2.6 mmol/L) will be limited to no more than approximately 20% of total planned enrollment. Fasting triglycerides must be ≦400 mg/dL (4.5 mmol/L) as determined by the central laboratory analysis at screening.

[4] = 280 mg Q4W SC, end of the dosing interval
[5] = 350 mg Q4W SC, end of the dosing interval
[6] = 70 mg (Q2W), end of the dosing interval
[7] = 105 mg (Q2W), end of the dosing interval
[8] = 280 mg (Q2W as printed), end of the dosing interval
[9] = 350 mg (Q2W as printed), end of the dosing interval

B1: 21B12: human anti-PCSK9 monoclonal antibody; light/heavy variable region SEQ ID NO 23/49 (antibody, listed as Homo sapiens, V domains shown)
VH: QVQLVQSGAEVKKPGASVKVSCKASGYTLTSYGISWVRQAPGQGLEWMGWVSFYNGNTNYAQKLQGRGTMTTDPSTSTAYMELRSLRSDDTAVYYCARGYGMDVWGQGTTVTVSS
VL: QSALTQPASVSGSPGQSITISCTGTSSDVGGYNSVSWYQQHPGKAPKLMIYEVSNRPSGVSNRFSGSKSGNTASLTISGLQAEDEADYYCNSYTSTSMVFGGGTKLTVL
Q: B1 was tested. Which “LS mean percent increase from baseline in HDL-C” value (“LS mean percent increase” below) [1, 4] did it give?
A: 8.62%

Q: And the “LS mean percent reduction from baseline in LDL-C” value [1, 4]?
A: 38.79%

Q: What about the “LS mean percent reduction from baseline in Lp(a)” value [1, 4] of the same molecule?
A: 27.38%

Q: What about the “LS mean percent reduction from baseline in VLDL-C” value [1, 4] of the same molecule?
A: 31.02%

Q: What about the “LS mean percent reduction from baseline in non-HDL-C” value [1, 4] of the same molecule?
A: 39.92%

Q: And the “LS mean percent reduction from baseline in total cholesterol” value [1, 4]?
A: 31.03%

Q: And the “LS mean percent reduction from baseline in triglycerides” value [1, 4]?
A: 15.35%

Q: What about the “LS mean percent increase” value [1, 5] of the same molecule?
A: 4.62%

Q: And the “LS mean percent reduction from baseline in LDL-C” value [1, 5]?
A: 40.01%

Q: And the “LS mean percent reduction from baseline in Lp(a)” value [1, 5]?
A: 16.04%

Q: What about the “LS mean percent reduction from baseline in VLDL-C” value [1, 5] of the same molecule?
A: 38.14%

Q: And the “LS mean percent reduction from baseline in non-HDL-C” value [1, 5]?
A: 42.86%

Q: What about the “LS mean percent reduction from baseline in total cholesterol” value [1, 5] of the same molecule?
A: 34.46%

Q: And the “LS mean percent reduction from baseline in triglycerides” value [1, 5]?
A: 19.22%

Q: What about the “LS mean percent increase” value ([1]; 420 mg Q4W SC) of the same molecule?
A: 7.55%

Q: And the “LS mean percent reduction from baseline in LDL-C” value ([1]; 420 mg Q4W SC)?
A: 50.63%

Q: What about the “LS mean percent reduction from baseline in Lp(a)” value ([1]; 420 mg Q4W SC) of the same molecule?
A: 23.84%

Q: What about the “LS mean percent reduction from baseline in VLDL-C” value ([1]; 420 mg Q4W SC) of the same molecule?
A: 37.27%

Q: And the “LS mean percent reduction from baseline in non-HDL-C” value ([1]; 420 mg Q4W SC)?
A: 53.49%

Q: What about the “LS mean percent reduction from baseline in total cholesterol” value ([1]; 420 mg Q4W SC) of the same molecule?
A: 42.23%

Q: And the “LS mean percent reduction from baseline in triglycerides” value ([1]; 420 mg Q4W SC)?
A: 19.55%

Q: And the “serum cholesterol levels vs patients not receiving the treatment” value [2]?
A: reduced serum cholesterol levels

Q: And the “LS mean percent increase” value [3, 6]?
A: 21.17%

Q: What about the “LS mean percent reduction from baseline in LDL-C” value [3, 6] of the same molecule?
A: 39.22%

Q: What about the “LS mean percent reduction from baseline in Lp(a)” value [3, 6] of the same molecule?
A: 21.17%

Q: What about the “LS mean percent reduction from baseline in VLDL-C” value [3, 6] of the same molecule?
A: 14.84%

Q: And the “LS mean percent reduction from baseline in non-HDL-C” value [3, 6]?
A: 36.20%

Q: And the “LS mean percent reduction from baseline in total cholesterol” value [3, 6]?
A: 26.33%

Q: What about the “LS mean percent reduction from baseline in triglycerides” value [3, 6] of the same molecule?
A: 7.20%

Q: And the “LS mean percent increase” value [3, 7]?
A: 6.80%

Q: What about the “LS mean percent reduction from baseline in LDL-C” value [3, 7] of the same molecule?
A: 56.38%

Q: And the “LS mean percent reduction from baseline in Lp(a)” value [3, 7]?
A: 33.41%

Q: And the “LS mean percent reduction from baseline in VLDL-C” value [3, 7]?
A: 12.75%

Q: And the “LS mean percent reduction from baseline in non-HDL-C” value [3, 7]?
A: 51.20%

Q: And the “LS mean percent reduction from baseline in total cholesterol” value [3, 7]?
A: 36.91%

Q: And the “LS mean percent reduction from baseline in triglycerides” value [3, 7]?
A: 5.65%

Q: And the “LS mean percent increase” value ([3]; 140 mg (Q2W))?
A: 8.43%

Q: And the “LS mean percent reduction from baseline in LDL-C” value ([3]; 140 mg (Q2W))?
A: 68.76%

Q: And the “LS mean percent reduction from baseline in Lp(a)” value ([3]; 140 mg (Q2W))?
A: 33.87%

Q: What about the “LS mean percent reduction from baseline in VLDL-C” value ([3]; 140 mg (Q2W)) of the same molecule?
A: 45.14%

Q: And the “LS mean percent reduction from baseline in non-HDL-C” value ([3]; 140 mg (Q2W))?
A: 64.61%

Q: What about the “LS mean percent reduction from baseline in total cholesterol” value ([3]; 140 mg (Q2W)) of the same molecule?
A: 46.17%

Q: What about the “LS mean percent reduction from baseline in triglycerides” value ([3]; 140 mg (Q2W)) of the same molecule?
A: 17.60%

Q: What about the “LS mean percent increase” value [3, 8] of the same molecule?
A: 2.17%

Q: What about the “LS mean percent reduction from baseline in Lp(a)” value [3, 8] of the same molecule?
A: 22.54%

Q: And the “LS mean percent reduction from baseline in VLDL-C” value [3, 8]?
A: 18.12%

Q: And the “LS mean percent reduction from baseline in non-HDL-C” value [3, 8]?
A: 38.89%

Q: And the “LS mean percent reduction from baseline in total cholesterol” value [3, 8]?
A: 28.08%

Q: What about the “LS mean percent reduction from baseline in triglycerides” value [3, 8] of the same molecule?
A: 6.75%

Q: What about the “LS mean percent reduction from baseline in LDL-C” value ([3]; 280 mg (Q4W), end of the dosing interval) of the same molecule?
A: 42.62%

Q: And the “LS mean percent increase” value [3, 9]?
A: 6.92%

Q: What about the “LS mean percent reduction from baseline in Lp(a)” value [3, 9] of the same molecule?
A: 29.43%

Q: What about the “LS mean percent reduction from baseline in VLDL-C” value [3, 9] of the same molecule?
A: 20.89%

Q: What about the “LS mean percent reduction from baseline in non-HDL-C” value [3, 9] of the same molecule?
A: 50.83%

Q: And the “LS mean percent reduction from baseline in total cholesterol” value [3, 9]?
A: 36.04%

Q: And the “LS mean percent reduction from baseline in triglycerides” value [3, 9]?
A: 9.17%

Q: And the “LS mean percent reduction from baseline in LDL-C” value ([3]; 350 mg, end of the dosing interval)?
A: 56.84%

Q: What about the “LS mean percent increase” value ([3]; 420 mg (Q2W as printed)) of the same molecule?
A: 7.42%

Q: What about the “LS mean percent reduction from baseline in Lp(a)” value ([3]; 420 mg (Q2W as printed)) of the same molecule?
A: 23.29%

Q: What about the “LS mean percent reduction from baseline in VLDL-C” value ([3]; 420 mg (Q2W as printed)) of the same molecule?
A: 28.66%

Q: And the “LS mean percent reduction from baseline in non-HDL-C” value ([3]; 420 mg (Q2W as printed))?
A: 48.54%

Q: And the “LS mean percent reduction from baseline in total cholesterol” value ([3]; 420 mg (Q2W as printed))?
A: 42.76%

Q: What about the “LS mean percent reduction from baseline in triglycerides” value ([3]; 420 mg (Q2W as printed)) of the same molecule?
A: 11.13%

Q: And the “LS mean percent reduction from baseline in LDL-C” value ([3]; 420 mg)?
A: 52.19%
